Assay results as given in patent US20260234246A1 (CAEDO ONCOLOGY, published 2026).
Values belong to the binder of their own block, whether it stands above or below them.

Key:
[1] = target: T1, human CD47 on the surface of cells (human cancer cell lines and human red blood cells) (human, UniProt Q08722 19-323); experiment: flow cytometry, FITC-conjugated antibody on human RBCs
T1 construct: Native CD47 of human cell lines (Jurkat, Reh, CCRF-CEM and others) and of RBCs from healthy donors; also called cell-surface CD47
T1 sequence (Q08722 19-323 limits assumed): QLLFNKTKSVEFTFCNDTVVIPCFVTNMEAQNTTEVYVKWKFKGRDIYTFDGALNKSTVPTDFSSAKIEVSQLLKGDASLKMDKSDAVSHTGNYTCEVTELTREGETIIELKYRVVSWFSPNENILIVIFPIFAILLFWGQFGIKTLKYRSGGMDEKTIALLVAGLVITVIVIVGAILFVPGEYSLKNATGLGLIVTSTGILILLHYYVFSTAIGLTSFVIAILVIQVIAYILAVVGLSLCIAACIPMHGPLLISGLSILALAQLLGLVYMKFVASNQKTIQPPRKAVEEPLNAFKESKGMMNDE
Description: (§1) PBS-washed cancer cell lines or RBCs were pelleted and washed with washing buffer (3% (w/v) BSA, 1% (w/v) sodium azide in PBS) and incubated with Human BD Fc Block for 10 minutes before being plated into a round-bottom 96 well plate (2.5×10⁵ cells per well). Antibodies were conjugated with FITC using the FITC conjugation kit from Abcam. […] All samples were prepared in duplicates. Cells were washed three times and resuspended in cold washing buffer. Cells were kept on ice until analyses by flow cytometry. Excitation wavelength FITC: 488 nm, detection: 530/30 nm.
(§2) 4-parameter curve fitting was performed using GraphPad Prism

[2] = target: T2, recombinant CD47 (recCD47), SinoBiological 12283-H27H-B, biotinylated (human, UniProt Q08722 19-139, biotinylated (AVI-tag)); experiment: SPR Biacore S200, single-cycle (top 80 nM), recCD47 on SA chip 1330 RU, antibody as analyte, 1:1 model
T2 construct: Bought protein, 17 kDa; At 17 kDa it can only be a part of it; also called recombinant biotinylated CD47; not shown: C-terminal His- and AVI-tag
T2 sequence (Q08722 19-139 limits assumed): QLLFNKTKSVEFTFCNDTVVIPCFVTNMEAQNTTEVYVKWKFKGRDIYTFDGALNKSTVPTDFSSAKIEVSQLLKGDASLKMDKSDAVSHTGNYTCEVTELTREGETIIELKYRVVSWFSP

[3] = target: T1, human CD47 on the surface of cells …; experiment: flow cytometry, FITC-conjugated antibody on CCRF-CEM cells
Description: as §1, §2

[4] = target: T1, human CD47 on the surface of cells …; experiment: flow cytometry, FITC-conjugated antibody on Jurkat cells
Description: as §1, §2

[5] = target: T2, recombinant CD47 (recCD47), …; experiment: SPR Biacore S200, multi-cycle (top 50 nM), recCD47 on SA chip 1330 RU, antibody as analyte, 1:1 model
[6] = target: T1, human CD47 on the surface of cells …; experiment: flow cytometry, FITC-conjugated antibody on Reh cells
Description: as §1, §2

[7] = target: T2, recombinant CD47 (recCD47), …; experiment: SPR Biacore S200, single-cycle, recCD47 on SA chip 700 RU, antibody as analyte, 25 C, 1:1 model
[8] = target: T2, recombinant CD47 (recCD47), …; experiment: SPR Biacore S200, single-cycle, recCD47 on SA chip 100 RU, antibody as analyte, 25 C, 1:1 model;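 further: antibodies were injected over the captured CD47 at a series of concentrations, and KD was derived as the dissociation rate constant divided by the association rate constant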
Description: The binding affinity of the huCO-mAbs to CD47 was determined via surface plasmon resonance (SPR) on a Biacore S200 system. Recombinant biotinylated CD47 was immobilized on an SA streptavidin chip to a level of 100 RU (in 10 mM NaAc pH5.0). The huCO-mAbs reacted with recombinant CD47 at gradient concentrations.
A 1:1 binding model was used to fit the data. […] The affinity constant KD is calculated as kd/kₐ.

B1: AO-C IgG1 (AO-176 candidate C) (antibody, V domains shown)
VH: QVQLVQSGAEVKKPGSSVKVSCKASGYTFTNYWIHWVRQAPGQGLEWMGYTDPRTDYTEYAQKFQGRVTITADESTSTAYMELSSLRSEDTAVYYCARGGRVGLGYWGQGTLVTVSS
VL: DIVMTQSPDSLAVSLGERATINCRSSQNIVQSNGNTYLEWYQQKPGQPPKLLIYKVFHRFSGVPDRFSGSGSGTDFTLTISSLQAEDVAVYYCFQGSHVPYTFGQGTKLEIKR
notes: Comparator from WO2020/198370; also called AO-C.1; SC-AO-C
- EC50 [1]: 21.8 µg/mL
- Kd [2]: 3 nM
- koff [2]: 0.003 s⁻¹
- kon [2]: 1.2e+06 M⁻¹ s⁻¹
- EC50 [3]: 5.78 ng/mL
- EC50 [4]: 0.0395 µg/mL
- Kd [5]: 6 nM
- koff [5]: ~0.01 s⁻¹
- kon [5]: 2.3e+06 M⁻¹ s⁻¹
- EC50 [6]: 10.5 µg/mL

B2: AO-B IgG1 (AO-176 candidate B) (antibody, V domains shown)
VH: EVQLVQSGAEVKKPGESLKISCKGSGYTFTNYWIHWVRQMPGKGLEWMGYTDPRTDYTEYNQKFKDQVTISADKSISTAYLQWSSLKASDTAMYYCARGGRVGLGYWGQGTLVTVSS
VL: DIVMTQSPDSLAVSLGERATINCRSSQNIVQSNGNTYLEWYQQKPGQPPKLLIYKVFHRFSGVPDRFSGSGSGTDFTLTISSLQAEDVAVYYCFQGSHVPYTFGQGTKLEIKR
notes: Comparator from WO2020/198370; also called AO-B.1; AO-176 B
- EC50 [1]: 3.67 µg/mL
- Kd [2]: 2 nM
- koff [2]: 0.001 s⁻¹
- kon [2]: 800000 M⁻¹ s⁻¹
- EC50 [3]: 0.559 ng/mL
- EC50 [4]: 0.0748 µg/mL
- Kd [5]: 3 nM
- koff [5]: 0.004 s⁻¹
- kon [5]: 1.5e+06 M⁻¹ s⁻¹
- EC50 [6]: 3.1 µg/mL

B4: CO207 humanized IgG4 anti-CD47 antibody (antibody, V domains shown)
VH: QVQLVQSGSELKKPGASVKVSCKASGYTFTNFGMHWVRQAPGQGLKWMGWINTYTGEPTYTDDFKGRFVFSLDTSVSTAYLQISSLKAEDTAVYYCTRGDYRYGDSWGQGTTVTVSS
VL: DIVMTQTPLSLSVTPGQPASISCRSSQSLVHSNGKTYLHWYLQKPGQSPQLLIYRVSNRFSGVPDRFSGSGSGTDFTLKISRVEAEDVGVYYCSQSTHVPFTFGQGTKLEIK
notes: also called huCO-mAb
- Kd [8]: 0.0153 nM
- koff [8]: 7.3e-05 s⁻¹
- kon [8]: 4.8e+06 M⁻¹ s⁻¹

B5: CO203 humanized IgG4 anti-CD47 antibody (antibody, V domains shown)
VH: QVQLVQSGSELKKPGASVKVSCKASGYTFTNFGMHWVRQAPGQGLKWMGWINTYTGEPTYTDDFKGRFVFSLDTSVSTAYLQISSLKAEDTAVYYCTRGDYRYGDSWGQGTTVTVSS
VL: DIVMTQTPLSLSVTPGQPASISCRSSQSLVHSNGKTYLHWYLQKPGQPPQLLIYRVSNRFSGVPDRFSGSGSGTDFTLKISRVEAEDVGVYYCSQSTHVPFTFGQGTKLEIK
notes: also called huCO-mAb
- Kd [8]: 0.0164 nM
- koff [8]: 7.9e-05 s⁻¹
- kon [8]: 4.8e+06 M⁻¹ s⁻¹

B7: CO206 humanized IgG4 anti-CD47 antibody (antibody, V domains shown)
VH: QVQLVQSGSELKKPGASVKVSCKASGYTFTNFGMHWVRQAPGQGLEWMGWINTYTGEPTYTDDFKGRFVFSLDTSVSTAYLQISSLKAEDTAVYYCTRGDYRYGDSWGQGTTVTVSS
VL: DIVMTQTPLSLSVTPGQPASISCRSSQSLVHSNGKTYLHWYLQKPGQSPQLLIYRVSNRFSGVPDRFSGSGSGTDFTLKISRVEAEDVGVYYCSQSTHVPFTFGQGTKLEIK
notes: also called huCO-mAb
- Kd [8]: 0.0205 nM
- koff [8]: 0.0001 s⁻¹
- kon [8]: 5.1e+06 M⁻¹ s⁻¹

B11: CO204 humanized IgG4 anti-CD47 antibody (antibody, V domains shown)
VH: QVQLVQSGSELKKPGASVKVSCKASGYTFTNFGMHWVRQAPGKGLKWMGWINTYTGEPTYTDDFKGRFVFSLDTSVSTAYLQISSLKAEDTAVYYCTRGDYRYGDSWGQGTTVTVSS
VL: DIVMTQTPLSLSVTPGQPASISCRSSQSLVHSNGKTYLHWYLQKPGQPPQLLIYRVSNRFSGVPDRFSGSGSGTDFTLKISRVEAEDVGVYYCSQSTHVPFTFGQGTKLEIK
notes: also called huCO-mAb
- Kd [8]: 0.0149 nM
- koff [8]: 8.5e-05 s⁻¹
- kon [8]: 5.7e+06 M⁻¹ s⁻¹

B12: CO202 humanized IgG4 anti-CD47 antibody (antibody, V domains shown)
VH: QVQLVQSGSELKKPGASVKVSCKASGYTFTNFGMHWVRQAPGQGLEWMGWINTYTGEPTYTDDFKGRFVFSLDTSVSTAYLQISSLKAEDTAVYYCTRGDYRYGDSWGQGTTVTVSS
VL: DIVMTQTPLSLSVTPGQPASISCRSSQSLVHSNGKTYLHWYLQKPGQPPQLLIYRVSNRFSGVPDRFSGSGSGTDFTLKISRVEAEDVGVYYCSQSTHVPFTFGQGTKLEIK
notes: also called huCO-mAb
- Kd [8]: 0.023 nM
- koff [8]: 0.00012 s⁻¹
- kon [8]: 5.3e+06 M⁻¹ s⁻¹

B13: CO208 humanized IgG4 anti-CD47 antibody (antibody, V domains shown)
VH: QVQLVQSGSELKKPGASVKVSCKASGYTFTNFGMHWVRQAPGKGLKWMGWINTYTGEPTYTDDFKGRFVFSLDTSVSTAYLQISSLKAEDTAVYYCTRGDYRYGDSWGQGTTVTVSS
VL: DIVMTQTPLSLSVTPGQPASISCRSSQSLVHSNGKTYLHWYLQKPGQSPQLLIYRVSNRFSGVPDRFSGSGSGTDFTLKISRVEAEDVGVYYCSQSTHVPFTFGQGTKLEIK
notes: also called huCO-mAb
- Kd [8]: 0.016 nM
- koff [8]: 8.1e-05 s⁻¹
- kon [8]: 5e+06 M⁻¹ s⁻¹

B14: CO209 humanized IgG4 anti-CD47 antibody (antibody, V domains shown)
VH: QVQLVQSGSELKKPGASVKVSCKASGYTFTNFGMHWVRQAPGQGLEWMGWINTYTGEPTYTDDFKGRFVFSLDTSVSTAYLQISSLKAEDTAVYYCARGDYRYGDSWGQGTTVTVSS
VL: DIVMTQTPLSLSVTPGQPASISCRSSQSLVHSNGKTYLHWYLQKPGQSPKLLIYRVSNRFSGVPDRFSGSGSGTDFTLKISRVEAEDVGVYYCSQSTHVPFTFGQGTKLEIK
notes: also called huCO-mAb
- Kd [8]: 0.0386 nM
- koff [8]: 0.00032 s⁻¹
- kon [8]: 8.2e+06 M⁻¹ s⁻¹

More lines, now with the values ahead:

- Kd [7]: 3 pM
- koff [7]: 4.4e-06 s⁻¹
- kon [7]: 1.5e+06 M⁻¹ s⁻¹
B3: CO-1.4 antibody (chimeric CO-1 IgG4) (antibody)
heavy: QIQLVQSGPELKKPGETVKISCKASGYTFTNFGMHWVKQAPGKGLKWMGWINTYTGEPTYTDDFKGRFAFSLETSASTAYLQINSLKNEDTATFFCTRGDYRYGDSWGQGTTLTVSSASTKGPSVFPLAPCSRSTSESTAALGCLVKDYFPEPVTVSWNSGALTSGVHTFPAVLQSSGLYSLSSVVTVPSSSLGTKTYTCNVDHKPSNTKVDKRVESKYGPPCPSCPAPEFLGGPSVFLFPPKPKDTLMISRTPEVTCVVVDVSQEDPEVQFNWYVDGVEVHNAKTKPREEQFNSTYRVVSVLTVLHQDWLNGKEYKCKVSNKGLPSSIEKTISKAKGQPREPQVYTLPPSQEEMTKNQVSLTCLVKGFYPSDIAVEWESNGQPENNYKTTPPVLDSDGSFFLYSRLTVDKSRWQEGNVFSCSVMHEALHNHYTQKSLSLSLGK
light: DVVMTQTPLSLPVSLGDQASISCRSSQSLVHSNGKTYLHWYLQKPGQSPKLLIYRVSNRFSGVPDRFSGSGSGTDFTLKISRIEAEDLGVYFCSQSTHVPFTFGSGTKLEIKRTVAAPSVFIFPPSDEQLKSGTASVVCLLNNFYPREAKVQWKVDNALQSGNSQESVTEQDSKDSTYSLSSTLTLSKADYEKHKVYACEVTHQGLSSPVTKSFNRGEC
notes: Chimeric: mouse variable domains of mCO-1 with human IgG4 constant regions; also called SC-CO-1.4

- Kd [8]: 0.032 nM
- koff [8]: 0.00034 s⁻¹
- kon [8]: 1.1e+07 M⁻¹ s⁻¹
B6: CO213 humanized IgG4 anti-CD47 antibody (antibody, V domains shown)
VH: QVQLVQSGSELKKPGASVKVSCKASGYTFTNFGMHWVRQAPGQGLKWMGWINTYTGEPTYTDDFKGRFVFSLDTSVSTAYLQISSLKAEDTAVYYCARGDYRYGDSWGQGTTVTVSS
VL: DIVMTQTPLSLSVTPGQPASISCRSSQSLVHSNGKTYLHWYLQKPGQPPQLLIYRVSNRFSGVPDRFSGSGSGTDFTLKISRVEAEDVGVYYCSQSTHVPFTFGQGTKLEIK
notes: also called huCO-mAb

- Kd [8]: 0.0123 nM
- koff [8]: 7.2e-05 s⁻¹
- kon [8]: 5.8e+06 M⁻¹ s⁻¹
B8: CO212 humanized IgG4 anti-CD47 antibody (antibody, V domains shown)
VH: QVQLVQSGSELKKPGASVKVSCKASGYTFTNFGMHWVRQAPGKGLKWMGWINTYTGEPTYTDDFKGRFVFSLDTSVSTAYLQISSLKAEDTAVYYCTRGDYRYGDSWGQGTTVTVSS
VL: DIVMTQTPLSLSVTPGQPASISCRSSQSLVHSNGKTYLHWYLQKPGQSPKLLIYRVSNRFSGVPDRFSGSGSGTDFTLKISRVEAEDVGVYYCSQSTHVPFTFGQGTKLEIK
notes: also called huCO-mAb

- Kd [8]: 0.0135 nM
- koff [8]: 6.8e-05 s⁻¹
- kon [8]: 5.1e+06 M⁻¹ s⁻¹
B9: CO211 humanized IgG4 anti-CD47 antibody (antibody, V domains shown)
VH: QVQLVQSGSELKKPGASVKVSCKASGYTFTNFGMHWVRQAPGQGLKWMGWINTYTGEPTYTDDFKGRFVFSLDTSVSTAYLQISSLKAEDTAVYYCTRGDYRYGDSWGQGTTVTVSS
VL: DIVMTQTPLSLSVTPGQPASISCRSSQSLVHSNGKTYLHWYLQKPGQSPKLLIYRVSNRFSGVPDRFSGSGSGTDFTLKISRVEAEDVGVYYCSQSTHVPFTFGQGTKLEIK
notes: also called huCO-mAb

- Kd [8]: 0.017 nM
- koff [8]: 8.3e-05 s⁻¹
- kon [8]: 4.9e+06 M⁻¹ s⁻¹
B10: CO210 humanized IgG4 anti-CD47 antibody (antibody, V domains shown)
VH: QVQLVQSGSELKKPGASVKVSCKASGYTFTNFGMHWVRQAPGQGLEWMGWINTYTGEPTYTDDFKGRFVFSLDTSVSTAYLQISSLKAEDTAVYYCTRGDYRYGDSWGQGTTVTVSS
VL: DIVMTQTPLSLSVTPGQPASISCRSSQSLVHSNGKTYLHWYLQKPGQSPKLLIYRVSNRFSGVPDRFSGSGSGTDFTLKISRVEAEDVGVYYCSQSTHVPFTFGQGTKLEIK
notes: also called huCO-mAb
